Square brackets hold non-standard residues; d marks the D form. Ends that are not written are not given here. * marks the point of attachment. pY = N[C@@H](Cc1ccc(OP(=O)(O)O)cc1)C(=O)O; Dansyl = CN(C)c1cccc2c(S(=O)(=O)*)cccc12
Tests used:
Conditions in all cases: both partners purified
[1] = target: T1, SH2 domain of Crkl protein (residues 1-111), wild type (UniProt P46109 1-111); test: stopped-flow fluorescence kinetics (FRET); dansyl-Pax112-123 constant at 2 μM mixed with Crkl-SH2 2 to 10 μM (pseudo-first-order, kon); koff by displacement of the preincubated 2 µM complex with excess non-dansylated Pax112-123 (30 μM); 283 K; 50 mM TrisHCl pH 8.0, 0.5 M NaCl
T1 construct: Crkl adaptor protein, SH2 domain, residues 1-111; Subcloned in pET28b+; all experiments were done on the N-terminally His-tagged protein; also called Crkl-SH2; Crkl SH2 domain; source: E. coli BL21 (DE3), purified (HisTrap nickel column, desalting); not shown: His tag, N-terminal, kept

[2] = target: T2, SH2 domain of Crkl protein (residues 1-111), H33A variant (UniProt P46109 1-111, H33A); test: as above
T2 construct: Crkl adaptor protein, SH2 domain, residues 1-111, His33 replaced by alanine; Site-directed mutant of m1 (QuikChange); source: E. coli BL21 (DE3), purified (HisTrap nickel column, desalting); not shown: His tag, N-terminal, kept

[3] = target: T3, SH2 domain of Crkl protein (residues 1-111), H80A variant (UniProt P46109 1-111, H80A); test: as above
T3 construct: Crkl adaptor protein, SH2 domain, residues 1-111, His80 replaced by alanine; Site-directed mutant of m1 (QuikChange); source: E. coli BL21 (DE3), purified (HisTrap nickel column, desalting); not shown: His tag, N-terminal, kept

[4] = target: T4, SH2 domain of Crkl protein (residues 1-111), H91A variant (UniProt P46109 1-111, H91A); test: as above
T4 construct: Crkl adaptor protein, SH2 domain, residues 1-111, His91 replaced by alanine; Site-directed mutant of m1 (QuikChange); source: E. coli BL21 (DE3), purified (HisTrap nickel column, desalting); not shown: His tag, N-terminal, kept

[5] = target: T4, SH2 domain of Crkl protein (residues …); test: stopped-flow fluorescence kinetics (FRET); dansyl-Pax112-123 constant at 2 μM mixed with Crkl-SH2 2 to 10 μM (pseudo-first-order, kon); koff by displacement of the preincubated 2 µM complex with excess non-dansylated Pax112-123 (30 μM); 283 K; 50 mM TrisHCl pH 9.0, 0.5 M NaCl
[6] = target: T1, SH2 domain of Crkl protein (residues …); test: stopped-flow fluorescence kinetics (FRET); dansyl-Pax112-123 constant at 2 μM mixed with Crkl-SH2 2 to 10 μM (pseudo-first-order, kon); koff by displacement of the preincubated 2 µM complex with excess non-dansylated Pax112-123 (30 μM); 283 K; 50 mM sodium-acetate pH 5.0, 0.5 M NaCl
[7] = target: T2, SH2 domain of Crkl protein (residues …); test: as above
[8] = target: T3, SH2 domain of Crkl protein (residues …); test: as above
[9] = target: T1, SH2 domain of Crkl protein (residues …); test: stopped-flow fluorescence kinetics (FRET); dansyl-Pax112-123 constant at 2 μM mixed with Crkl-SH2 2 to 10 μM (pseudo-first-order, kon); koff by displacement of the preincubated 2 µM complex with excess non-dansylated Pax112-123 (30 μM); 283 K; 50 mM sodium-acetate pH 5.5, 0.5 M NaCl
[10] = target: T3, SH2 domain of Crkl protein (residues …); test: as above

T3 sequence (P46109 1-111 H80A): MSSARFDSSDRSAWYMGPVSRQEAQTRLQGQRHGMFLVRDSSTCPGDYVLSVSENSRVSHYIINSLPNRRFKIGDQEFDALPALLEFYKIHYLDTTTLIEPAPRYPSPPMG
T4 sequence (P46109 1-111 H91A): as the sequence (P46109 1-111 H80A) above, with A80H, H91A counted along it
T1 sequence (P46109 1-111): as the sequence (P46109 1-111 H80A) above, with A80H counted along it
T2 sequence (P46109 1-111 H33A): as the sequence (P46109 1-111 H80A) above, with H33A, A80H counted along it

B1: dansylated Pax_(112–123) peptide (Dans-GEEEHV-pY-SFPNK) (peptide)
peptide: Dansyl-GEEEHV[pY]SFPNK
notes: The dansyl group is the FRET acceptor of Trp14 of the SH2 domain; source: synthetic peptide, bought: GenScript
In the case of B1, the Kd [1] is reported as 3100 ± 200 nM, the koff [1] is reported as 41.4 ± 0.9 s⁻¹ and the kon [1] is reported as 1.32e+07 ± 700000 M⁻¹ s⁻¹. The Kd [2] was 2000 ± 300 nM, the koff [2] was 29.3 ± 3.4 s⁻¹ and the kon [2] was 1.46e+07 ± 1.1e+06 M⁻¹ s⁻¹. For the same binder, the Kd [3] was 2300 ± 300 nM, the koff [3] was 30.1 ± 3.3 s⁻¹ and the kon [3] was 1.32e+07 ± 700000 M⁻¹ s⁻¹. The Kd [4] was 2900 ± 100 nM, the koff [4] was 39 ± 0.7 s⁻¹ and the kon [4] was 1.32e+07 ± 500000 M⁻¹ s⁻¹. It also gave a Kd [5] of 2900 ± 100 nM, a koff [5] of 36.4 ± 0.5 s⁻¹ and a kon [5] of 1.27e+07 ± 500000 M⁻¹ s⁻¹. The Kd [6] was 9500 ± 1700 nM, the koff [6] was 49.1 ± 1.7 s⁻¹ and the kon [6] was 5.2e+06 ± 900000 M⁻¹ s⁻¹. It also gave a Kd [7] of 7600 ± 700 nM, a koff [7] of 33.2 ± 1.4 s⁻¹ and a kon [7] of 4.4e+06 ± 300000 M⁻¹ s⁻¹. The Kd [8] was 11500 ± 1200 nM, the koff [8] was 52.7 ± 3.2 s⁻¹ and the kon [8] was 4.6e+06 ± 400000 M⁻¹ s⁻¹. The Kd [9] was 3000 ± 300 nM, the koff [9] was 25.6 ± 0.4 s⁻¹ and the kon [9] was 8.4e+06 ± 700000 M⁻¹ s⁻¹. For the same binder, the Kd [10] was 2500 ± 500 nM, the koff [10] was 20 ± 3.7 s⁻¹ and the kon [10] was 7.9e+06 ± 900000 M⁻¹ s⁻¹.

From article PMC9332313, “Folding and Binding Mechanisms of the SH2 Domain from Crkl” (Biomolecules, 2022)
